Source: the supplement of paper PMC11246515
± gives the standard deviation of the averaged measurements.

Test: total protein half-life in vivo (active degradation + dilution); higher = more stable protein
[1] = E. coli NCM3722 delta-clpP delta-lon delta-hslV, growth: N-lim chemostat, doubling time 6 h
[2] = E. coli NCM3722 delta-clpP, growth: N-lim chemostat, doubling time 6 h
[3] = E. coli NCM3722 delta-hslV, growth: N-lim chemostat, doubling time 6 h
[4] = E. coli NCM3722 delta-lon, growth: N-lim chemostat, doubling time 6 h
[5] = E. coli NCM3722 delta-smpB, growth: N-lim chemostat, doubling time 6 h
[6] = wild type E. coli NCM3722, growth: C-lim chemostat, doubling time 3 h
[7] = wild type E. coli NCM3722, growth: C-lim chemostat, doubling time 6 h
[8] = wild type E. coli NCM3722, growth: C-lim chemostat, doubling time 12 h
[9] = wild type E. coli NCM3722, growth: N-lim chemostat, doubling time 6 h
[10] = wild type E. coli NCM3722, growth: N-lim chemostat, doubling time 12 h
[11] = wild type E. coli NCM3722, growth: P-lim chemostat, doubling time 6 h
[12] = wild type E. coli NCM3722, growth: P-lim chemostat, doubling time 12 h

Sequence | total protein half-life in vivo [1] [h] | total protein half-life in vivo [2] [h] | total protein half-life in vivo [3] [h] | total protein half-life in vivo [4] [h] | total protein half-life in vivo [5] [h] | total protein half-life in vivo [6] [h] | total protein half-life in vivo [7] [h] | total protein half-life in vivo [8] [h] | total protein half-life in vivo [9] [h] | total protein half-life in vivo [10] [h] | total protein half-life in vivo [11] [h] | total protein half-life in vivo [12] [h]
MSRTIFCTFLQREAEGQDFQLYPGELGKRIYNEISKEAWAQWQHKQTMLINEKKLNMMNAEHRKLLEQEMVNFLFEGKEVHIEGYTPEDKK [P0A8P3] | 6.2 ± 0.24 | 4.957 ± 0.0071 | 4.94 ± 1.4 | 5.01 ± 0.2 | 3.99 ± 0.37 | 3.07 ± 0.31 | 5.14 ± 0.14 | 8.58 ± 1.5 | 3.63 ± 0.074 | 6.39 ± 0.51 | 5.7 | 9.27 ± 1.4
MEFTTGLMSLDTALNEMLSRVTPLTAQETLPLVQCFGRILASDVVSPLDVPGFDNSAMDGYAVRLADIASGQPLPVAGKSFAGQPYHGEWPAGTCIRIMTGAPVPEGCEAVVMQEQTEQMDNGVRFTAEVRSGQNIRRRGEDISAGAVVFPAGTRLTTAELPVIASLGIAEVPVIRKVRVALFSTGDELQLPGQPLGDGQIYDTNRLAVHLMLEQLGCEVINLGIIRDDPHALRAAFIEADSQADVVISSGGVSVGEADYTKTILEELGEIAFWKLAIKPGKPFAFGKLSNSWFCGLPGNPVSATLTFYQLVQPLLAKLSGNTASGLPARQRVRTASRLKKTPGRLDFQRGVLQRNADGELEVTTTGHQGSHIFSSFSLGNCFIVLERDRGNVEVGEWVEVEPFNALFGGL | – | – | 4.41 ± 0.22 | 4.63 ± 0.21 | 4.88 ± 0.29 | 2.741 ± 0.013 | 4.96 ± 0.85 | 11.1 ± 0.4 | 4.07 ± 0.22 | 7.4293 ± 0.003 | 5.64 ± 0.34 | 11.1 ± 1.6
MGQQKQRNRRWVLASRPHGAPVPENFRLEEDDVATPGEGQVLLRTVYLSLDPYMRGRMSDEPSYSPPVDIGGVMVGGTVSRVVESNHPDYQSGDWVLGYSGWQDYDISSGDDLVKLGDHPQNPSWSLGVLGMPGFTAYMGLLDIGQPKEGETLVVAAATGPVGATVGQIGKLKGCRVVGVAGGAEKCRHATEVLGFDVCLDHHADDFAEQLAKACPKGIDIYYENVGGKVFDAVLPLLNTSARIPVCGLVSSYNATELPPGPDRLPLLMATVLKKRIRLQGFIIAQDYGHRIHEFQREMGQWVKEDKIHYREEITDGLENAPQTFIGLLKGKNFGKVVIRVAGDD | 4.9643 ± 0.002 | 5.13 ± 1.2 | 5.03 ± 0.36 | 4.74 ± 0.34 | 4.16 ± 0.6 | 3.3 ± 0.29 | 5.53 ± 0.19 | 10.3 ± 1 | 4.48 ± 0.35 | 7.42 ± 0.32 | 5.59 ± 0.22 | 10.9 ± 0.62
